Test results as given in the supplement of paper PMC9732359.
± gives the uncertainty stated by the source.

Experiment: protein stability index of a GFP-peptide fusion (yeast GPS) (PSI 1-4); higher = more stable; sorted into four equal gates, so the index is relative within each strain
Summary of the method: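 The protein stability index of a peptide was calculated by multiplying its read frequency in each gate by that gate's number and adding the products. The peptides were tiled 17-residue stretches of yeast proteins, fused downstream of GFP on a Cherry-expressing plasmid and carried in yeast as a pooled library. Mid-log cultures in leucine-free medium were sorted into four equal gates by GFP/Cherry ratio, and each gate's plasmids were PCR-amplified and Illumina-sequenced.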

Sequence | protein stability index (doa10∆) | protein stability index (pdr5∆) | protein stability index (san1∆) | protein stability index (ubr1∆)
EKADYERELISNIEQTE [YIL149C/MLP2] | 3.34 ± 0.079 | 3.48 ± 0.087 | 3.27 ± 0.063 | 3.6 ± 0.098
PKSTKGKILTIKQQQQQ [YML103C/NUP188] | 2.39 ± 0.038 | 2.59 ± 0.046 | 2.42 ± 0.062 | 2.52 ± 0.04
SIISSKTSCVVEKRIGK [RGR1] | 2.46 ± 0.089 | 2.62 ± 0.084 | 2.59 ± 0.093 | 2.69 ± 0.05
ALRALARSGLRIGRIED [RPS14A] |  | 2.12 ± 0.096 | 2.33 ± 0.1 | 2.01 ± 0.071
KNSSQLLNEWSHNVDEL [RPN5] | 2.75 ± 0.057 | 2.81 ± 0.05 | 2.9 ± 0.045 | 2.64 ± 0.049
KETAPVIDTLAAGYGKI [RPL28] | 1.96 ± 0.088 | 2.71 ± 0.12 | 2.13 ± 0.21 | 2.53 ± 0.083
NKANIQALIHGLNRHYY [RPN11] | 2.12 ± 0.082 | 2.52 ± 0.073 | 2.21 ± 0.095 | 2.37 ± 0.073
ENPAFLPGTNNNSNSNN [SEC65] | 3.12 ± 0.17 | 3.13 ± 0.24 | 2.69 ± 0.15 | 2.86 ± 0.067
EQQWITRAQYLAFAKLV [SRP68] | 1.63 ± 0.06 | 1.51 ± 0.051 | 1.33 ± 0.086 | 1.5 ± 0.051
ILVFQVSMKANKYQIKK [RPL25] | 1.93 ± 0.052 | 2.2 ± 0.054 | 3.09 ± 0.046 | 3.03 ± 0.045
DIENKEEEYDETHETNI [YAR002W/NUP60] | 3.34 ± 0.071 | 3.21 ± 0.087 | 3.42 ± 0.083 | 3.33 ± 0.064
VGCKNLERLTLVFCKHI [GRR1] | 1.52 ± 0.062 | 1.91 ± 0.077 | 1.25 ± 0.11 | 1.63 ± 0.084
TIEQSPRMIELMEFLCV [ECM29] |  |  | 3.11 ± 0.14 | 3.25 ± 0.13
NRYAFSQPTNSTTTSLH [SMC4] | 2.44 ± 0.079 | 2.33 ± 0.052 | 2.14 ± 0.11 | 2.26 ± 0.044
VGKFLGYVSSLVEPSKV [FAS1] | 1.71 ± 0.064 | 2.14 ± 0.072 | 1.69 ± 0.12 | 1.89 ± 0.052
KCPGCLNITTVFSHAQT [RPS27A] | 2.76 ± 0.046 | 2.76 ± 0.051 | 2.9 ± 0.045 | 2.99 ± 0.043
ISKTVRFNVVKVSAAAG [RPS11A] | 3.19 ± 0.17 | 1.6 ± 0.13 |  | 1.64 ± 0.11
ATYMDNDIAGQPQALQK [RPO21] | 2.56 ± 0.077 | 2.49 ± 0.078 | 2.5 ± 0.073 | 2.7 ± 0.051
AESMCQELELPGEFVTA [SNF5] | 2.4 ± 0.061 | 2.53 ± 0.057 | 2.62 ± 0.048 | 2.46 ± 0.081
ATVDEFPLCVHLVSNEL [RPL10] | 3.01 ± 0.073 | 2.93 ± 0.067 | 3.05 ± 0.069 | 2.99 ± 0.053
EVIFTDVLKSQANTEPE [MCD1] | 3.07 ± 0.21 | 3.08 ± 0.12 | 2.97 ± 0.088 | 2.95 ± 0.12
QGGFYKQQDAEELFTQL [UBP6] | 3.38 ± 0.078 | 3.44 ± 0.12 | 3.07 ± 0.097 | 3.21 ± 0.075
IFSQMSRLLDILEDYCY [ISW2] | 1.66 ± 0.048 | 2.8 ± 0.094 | 2.03 ± 0.11 | 3.01 ± 0.092
SVSLVDEFPSELSDSDR [SIR4] | 2.68 ± 0.071 | 2.57 ± 0.058 | 2.64 ± 0.067 | 2.16 ± 0.057
YWSDKKADTDTLLYEQI [SNF5] | 2.55 ± 0.079 | 2.61 ± 0.069 | 2.64 ± 0.083 | 2.3 ± 0.049
YGESDIHFREHQSELII [YMR129W/POM152] | 2.31 ± 0.089 | 2.89 ± 0.096 | 2.21 ± 0.13 | 2.49 ± 0.077
ISTGGFMSNDGPTLEKY [SNU114] | 2.22 ± 0.068 | 2.57 ± 0.065 | 2.31 ± 0.071 | 2.12 ± 0.053

Sequence | protein stability index (doa10∆) | protein stability index (pdr5∆) | protein stability index (san1∆) | protein stability index (ubr1∆)
LNELHPTLPTNHNKTKL [PRP8] | 2.88 ± 0.064 | 3.08 ± 0.062 | 2.84 ± 0.056 | 2.72 ± 0.039
LWDVATGETYQRFVGHK [ASC1] | 2.98 ± 0.19 | 3.42 ± 0.17 | 1.59 ± 0.17 | 3.4 ± 0.094
FDEGTTLLSPKDNGMLI [RPO21] | 2.7 ± 0.066 | 2.45 ± 0.067 | 2.91 ± 0.061 | 1.96 ± 0.065
KTWLRNQEDEKNLQRES [RTT102] |  |  |  | 3.23 ± 0.19
ISSRTYGQRAVLKFAAH [RPS0B] | 1.78 ± 0.064 | 2.22 ± 0.095 | 2.26 ± 0.09 | 1.64 ± 0.069
LTVSIKIALMNIPKPLN [RGR1] | 1.19 ± 0.044 | 1.43 ± 0.057 | 1.54 ± 0.059 | 1.66 ± 0.032
SNEDVMMTGAEQDPYSN [RPB3] | 3.09 ± 0.092 | 3.09 ± 0.079 | 3.19 ± 0.085 | 3.12 ± 0.073
NGTMINEVIDKLKNENT [PCI8] | 2.84 ± 0.056 | 2.91 ± 0.052 | 2.84 ± 0.047 | 3.09 ± 0.037
KEISARRYKLLTATPNS [POP1] | 2.1 ± 0.051 | 2.45 ± 0.061 | 2.32 ± 0.06 | 2.5 ± 0.051
KVLLPSINISCVQLIKC [SWI1] | 1.27 ± 0.064 | 1.47 ± 0.051 | 1.17 ± 0.18 | 1.49 ± 0.051
AGVQGSKVSKQQAKGAF [RPL24B] | 3.08 ± 0.15 | 3.21 ± 0.11 | 3.19 ± 0.055 | 3.21 ± 0.081
TKIDMPIKNRKNDTHYL [BRN1] | 3.04 ± 0.07 | 3.05 ± 0.075 | 2.93 ± 0.055 | 2.94 ± 0.053
DLSVTPQKSSSKGFVFN [YAR002W/NUP60] | 2.74 ± 0.089 | 3.06 ± 0.12 | 2.88 ± 0.057 | 3.06 ± 0.12
GRNLGRIGTIVHKERHD [RPS4A] | 2.42 ± 0.13 | 2.03 ± 0.098 | 2.5 ± 0.059 | 2.63 ± 0.061
KVIEQPITSETAMKKVE [RPL25] | 3.02 ± 0.092 | 2.94 ± 0.066 | 2.88 ± 0.066 | 2.93 ± 0.074
KVTSTLLEQDTSTEKLY [PRE9] | 2.7 ± 0.056 | 3 ± 0.066 | 2.65 ± 0.063 | 2.63 ± 0.08
QHQRIVAFVCSPISDSR [RPN10] | 1.92 ± 0.097 | 3.12 ± 0.11 | 1.48 ± 0.15 | 2.3 ± 0.16
LLTAKHGMTLRESFEDN [RPO21] | 2.96 ± 0.13 | 2.56 ± 0.087 | 2.6 ± 0.086 | 1.55 ± 0.092
IEEAKSIRRQDYINELS [REC8] |  | 3.11 ± 0.22 | 3.39 ± 0.16 | 3.14 ± 0.17
LNTLLVTSADSNLKISL [SWI1] | 2.71 ± 0.078 | 2.9 ± 0.065 | 2.89 ± 0.054 | 2.52 ± 0.08
CIPLVGISVPFHSTYLM [FAS1] | 1.43 ± 0.041 | 1.3 ± 0.04 | 1.27 ± 0.069 | 1.39 ± 0.027
QERQRQIQKNGPEITPE [PRP8] | 2.88 ± 0.11 | 3.2 ± 0.11 | 2.77 ± 0.11 | 2.85 ± 0.092
AALFRLHKFLTKWGLIN [SWI3] | 2.83 ± 0.22 |  | 2.94 ± 0.19 | 2.66 ± 0.23
DIWQSRDQGNDSLNDDL [YIL149C/MLP2] | 3.53 ± 0.28 |  | 3.65 ± 0.17 | 3.76 ± 0.14
YSKAKYPDLQPFVLAEN [CDC53] | 2.3 ± 0.095 | 2.72 ± 0.063 | 2.13 ± 0.07 | 2.26 ± 0.078
DIEIVRVNKNAPAVELH [FAS2] | 2.87 ± 0.061 | 3.08 ± 0.064 | 3.24 ± 0.091 | 2.96 ± 0.049
